Values quoted from earlier work in article PMC12582428.
Where two headings read alike, the source gives them in different places.

Experiments:
[1] = biological target: Neuropeptide Y (Homo sapiens) (UniProt P01303)
[2] = biological target: Neuropeptide Y (Homo sapiens) (UniProt P01303); remark: listed apart in the source

Chain of Neuropeptide Y receptor Y1 (P25929 whole entry): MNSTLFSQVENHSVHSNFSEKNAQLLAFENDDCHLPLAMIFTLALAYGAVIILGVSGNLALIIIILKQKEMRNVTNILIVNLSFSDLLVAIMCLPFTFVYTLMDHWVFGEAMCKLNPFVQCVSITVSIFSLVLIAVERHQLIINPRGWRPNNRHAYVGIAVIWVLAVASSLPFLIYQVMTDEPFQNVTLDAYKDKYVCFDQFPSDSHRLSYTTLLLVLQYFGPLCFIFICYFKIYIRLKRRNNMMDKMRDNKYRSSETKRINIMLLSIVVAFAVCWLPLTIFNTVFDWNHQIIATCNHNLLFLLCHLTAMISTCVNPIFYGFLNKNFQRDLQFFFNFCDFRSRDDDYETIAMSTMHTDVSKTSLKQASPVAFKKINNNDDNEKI
Chain of Neuropeptide Y receptor Y2 (P49146 whole entry): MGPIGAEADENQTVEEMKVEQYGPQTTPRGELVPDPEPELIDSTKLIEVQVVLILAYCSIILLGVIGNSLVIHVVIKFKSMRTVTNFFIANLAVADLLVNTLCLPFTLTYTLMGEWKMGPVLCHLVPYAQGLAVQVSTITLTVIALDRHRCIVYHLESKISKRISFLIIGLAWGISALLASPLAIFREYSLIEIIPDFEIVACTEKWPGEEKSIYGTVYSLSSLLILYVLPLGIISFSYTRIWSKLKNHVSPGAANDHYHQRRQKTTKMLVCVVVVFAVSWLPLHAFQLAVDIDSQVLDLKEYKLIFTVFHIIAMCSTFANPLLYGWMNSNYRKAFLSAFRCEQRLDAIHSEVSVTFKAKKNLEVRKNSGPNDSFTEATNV

Substance	Kd [1] [nM]	Kd [2] [nM]
Neuropeptide Y receptor Y1 (from UniProt P25929)	4	
Neuropeptide Y receptor Y2 (from UniProt P49146)		0.12
